The target of test [1] is HIV-1 SF162 Env on pseudotyped virus (HIV-1 isolate SF162). Briefly: cell-based or functional assay.
For test [2], the target named is HIV-1 92BR020 Env on pseudotyped virus (HIV-1 isolate 92BR020). Briefly: cell-based or functional assay.
In test [3] the target is HIV-1 94UG103 Env on pseudotyped virus (HIV-1 isolate 94UG103). Briefly: cell-based or functional assay.
In test [4] the target is HIV-1 92RW020 Env (HIV-1 92RW020). Briefly: cell-based or functional assay.
Test [5] has as its target aMLV envelope on pseudotyped virus (negative control) (aMLV). Briefly: cell-based or functional assay.
Another test addresses JR-FL gp120 ΔV3 (HIV-1). Briefly: ELISA, antigen-coated wells.
The target of test [6] is HIV-1 APV17 envelope glycoprotein (Env) on pseudovirus (HIV-1). Briefly: cell-based or functional assay.
Test [7] concerns the target HIV-1 Env of isolate MGRM-Chronic-B-010 (subtype B pseudovirus) (HIV-1). Briefly: cell-based or functional assay.
Test [8] addresses HIV-1 MGRM-C-027 envelope glycoprotein (Env) on pseudovirus (HIV-1). Briefly: cell-based or functional assay.
The target in test [9] is HIV-1 Env of isolate JR-FL (subtype B pseudovirus) (HIV-1). Briefly: cell-based or functional assay.
Test [10] deals with HIV-1 APV13 envelope glycoprotein (Env) on pseudovirus (HIV-1). Briefly: cell-based or functional assay.
For test [11], the target named is HIV-1 JRFL envelope glycoprotein (Env) on pseudovirus (HIV-1). Briefly: cell-based or functional assay.
Test [12] addresses HIV-1 APV6 envelope glycoprotein (Env) on pseudovirus (HIV-1). Briefly: cell-based or functional assay.
In test [13] the target is HIV-1 envelope glycoprotein (Env) of isolate 6535.3 (HIV-1). Briefly: cell-based or functional assay.
Test [14] has as its target HIV-1 envelope glycoprotein (Env) of isolate 92BR020 (HIV-1). Briefly: cell-based or functional assay.
Test [15] deals with HIV-1 Env of isolate 92WR009 (subtype A) (HIV-1). Briefly: cell-based or functional assay.
Test [16] has as its target HIV-1 Env of isolate 92WR026 (subtype A) (HIV-1). Briefly: cell-based or functional assay.

These results are taken from patent publication US20250320281A1.

Broadly, the EC50 is the concentration giving half of the maximal effect.

Bounds are passed on as bounds.

Chain of 1443_C16 (PG16) (TCN-116) (antibody) (VH): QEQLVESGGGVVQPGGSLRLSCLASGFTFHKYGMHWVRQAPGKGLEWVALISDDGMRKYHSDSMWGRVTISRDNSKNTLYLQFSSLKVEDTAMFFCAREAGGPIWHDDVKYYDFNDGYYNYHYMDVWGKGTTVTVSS
Chain of 1443_C16 (PG16) (TCN-116) (antibody) (VL): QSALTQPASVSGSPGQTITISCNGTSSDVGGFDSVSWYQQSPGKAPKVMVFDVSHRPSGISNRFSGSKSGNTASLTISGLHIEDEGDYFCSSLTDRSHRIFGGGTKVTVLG
Chain of 4993_K13 (PGT-141) (antibody) (VH): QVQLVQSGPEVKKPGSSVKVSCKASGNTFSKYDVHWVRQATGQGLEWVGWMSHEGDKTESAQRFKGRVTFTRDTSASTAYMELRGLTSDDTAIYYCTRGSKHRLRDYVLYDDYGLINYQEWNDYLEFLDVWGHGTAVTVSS
Chain of 4993_K13 (PGT-141) (antibody) (VL): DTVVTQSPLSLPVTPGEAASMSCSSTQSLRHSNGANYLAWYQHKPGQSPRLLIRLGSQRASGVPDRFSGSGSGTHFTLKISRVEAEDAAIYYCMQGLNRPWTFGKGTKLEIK
Chain of 4995_E20 (PGT-142) (antibody) (VH): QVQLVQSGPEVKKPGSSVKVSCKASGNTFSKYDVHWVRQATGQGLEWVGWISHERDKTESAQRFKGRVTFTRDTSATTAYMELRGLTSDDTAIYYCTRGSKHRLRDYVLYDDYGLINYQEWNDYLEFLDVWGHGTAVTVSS
Chain of 4970_K22 (PGT-144) (antibody) (VH): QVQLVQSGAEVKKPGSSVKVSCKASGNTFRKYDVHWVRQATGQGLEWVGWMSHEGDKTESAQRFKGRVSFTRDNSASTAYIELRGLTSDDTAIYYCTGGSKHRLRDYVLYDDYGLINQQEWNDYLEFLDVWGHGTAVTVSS
Chain of 4970_K22 (PGT-144) (antibody) (VL): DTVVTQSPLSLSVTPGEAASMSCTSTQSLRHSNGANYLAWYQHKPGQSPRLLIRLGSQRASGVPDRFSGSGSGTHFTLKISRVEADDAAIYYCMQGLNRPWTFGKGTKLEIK
Chain of 4980_N08 (PGT-143) (antibody) (VH): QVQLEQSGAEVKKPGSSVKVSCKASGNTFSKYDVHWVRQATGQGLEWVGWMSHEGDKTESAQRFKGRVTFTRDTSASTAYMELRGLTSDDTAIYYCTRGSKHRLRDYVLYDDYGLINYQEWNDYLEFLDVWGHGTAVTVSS
Chain of 4980_N08 (PGT-143) (antibody) (VL): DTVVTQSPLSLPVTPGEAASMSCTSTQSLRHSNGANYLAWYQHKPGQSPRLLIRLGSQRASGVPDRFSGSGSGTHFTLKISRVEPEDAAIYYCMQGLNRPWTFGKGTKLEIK
Chain of 5329_C19 (PGT-136) (antibody) (VH): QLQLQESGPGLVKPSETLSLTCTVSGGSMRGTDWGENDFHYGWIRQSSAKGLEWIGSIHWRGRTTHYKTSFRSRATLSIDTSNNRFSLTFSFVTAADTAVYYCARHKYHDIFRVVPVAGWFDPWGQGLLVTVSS
Chain of 5329_C19 (PGT-136) (antibody) (VL): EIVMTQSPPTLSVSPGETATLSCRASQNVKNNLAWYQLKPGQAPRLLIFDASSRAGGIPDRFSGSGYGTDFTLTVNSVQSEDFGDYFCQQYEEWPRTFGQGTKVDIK
Chain of 5345_I01 (PGT-137) (antibody) (VH): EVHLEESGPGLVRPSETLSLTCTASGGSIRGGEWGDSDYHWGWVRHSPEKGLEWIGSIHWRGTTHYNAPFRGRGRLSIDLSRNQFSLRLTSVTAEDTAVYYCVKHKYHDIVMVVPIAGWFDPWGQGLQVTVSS
Chain of 5345_I01 (PGT-137) (antibody) (VL): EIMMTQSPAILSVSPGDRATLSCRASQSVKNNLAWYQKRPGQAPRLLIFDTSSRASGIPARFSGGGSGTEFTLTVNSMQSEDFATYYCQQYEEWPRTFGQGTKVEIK

1443_C16 (PG16) (TCN-116) (antibody): the Neutralizing Antibody Assay: IC50; Virus/Ab Incubation 1 hour was greater than 50 µg/mL in test [1], greater than 50 µg/mL in test [2], 0.0211 µg/mL in test [3] and greater than 50 µg/mL in [5]. The Neutralizing Antibody Assay: IC50; Virus/Ab Incubation 18 hour in [1] was greater than 50 µg/mL; in test [2], greater than 50 µg/mL; in test [3] it was 0.0085 µg/mL; in test [5], greater than 50 µg/mL. The same substance returned an IC50 (ug/ml), pseudovirus neutralization, TZM-bl assay in [4] of 0.09 µg/mL.

For 1495_C14 (PGC14) (antibody), the Neutralizing Antibody Assay: IC50; Virus/Ab Incubation 1 hour in test [1] was 0.0069 µg/mL; in [2], 1.17 µg/mL; in [3], greater than 50 µg/mL; in [5] it was greater than 50 µg/mL. The Neutralizing Antibody Assay: IC50; Virus/Ab Incubation 18 hour in [1] is less than 0.0025 µg/mL; in [2] it was 0.244 µg/mL; in [3], greater than 50 µg/mL; in [5], greater than 50 µg/mL.

In turn, 4838_L06 (PGT-121) (antibody) came in with an EC50 with JR-FL gp120 ΔV3 (HIV-1) greater than 10 µg/mL.

4858_P08 (PGT-123) (antibody): the neutralization IC50 came out at 0.18 µg/mL in [6]; 0.0169 µg/mL in test [8]; 0.222 µg/mL in test [10]; 0.0283 µg/mL in test [11]; 0.0328 µg/mL in test [12]. In addition, the neutralization IC80 in test [6] was 0.539 µg/mL; in test [8], 0.149 µg/mL; in test [10], 0.879 µg/mL; in test [11] it was 0.0904 µg/mL; in test [12] it was 0.145 µg/mL. In addition, the neutralization IC90 in test [6] is 1.01 µg/mL; in test [8], greater than 10 µg/mL; in test [10], 1.87 µg/mL; in test [11] it was 0.178 µg/mL; in test [12], 0.339 µg/mL. For the same substance, the neutralization IC95 in [6] was 1.75 µg/mL; in [8], greater than 10 µg/mL; in test [10], 3.5 µg/mL; in [11], 0.332 µg/mL; in test [12], 0.726 µg/mL. In addition, the IC50 (µg/mL), pseudovirus neutralization came out at 0.009 µg/mL in test [7] and 0.014 µg/mL in test [9].

For 4877_D15 (PGT-122) (antibody), the IC50 (µg/mL), pseudovirus neutralization in test [7] is 0.018 µg/mL; in [9] it was 0.026 µg/mL.

With 4970_K22 (PGT-144) (antibody), the IC50 (µg/mL), pseudovirus neutralization in [13] is greater than 50 µg/mL; in [14] it was 44 µg/mL; in [15], 0.893 µg/mL; in test [16], 32.7 µg/mL.

Consider 4980_N08 (PGT-143) (antibody), for which the IC50 (µg/mL), pseudovirus neutralization in [13] was greater than 50 µg/mL; in test [14] it was 25.9 µg/mL; in [15] it was 0.01 µg/mL; in test [16] it was 5.36 µg/mL.

In the case of 4993_K13 (PGT-141) (antibody), the IC50 (µg/mL), pseudovirus neutralization in [13] was greater than 50 µg/mL; in test [14] it was 20.3 µg/mL; in test [15] it was 0.022 µg/mL; in test [16], 1.78 µg/mL.

As to 4995_E20 (PGT-142) (antibody), the IC50 (µg/mL), pseudovirus neutralization is greater than 50 µg/mL in test [13], 15.1 µg/mL in [14], 0.006 µg/mL in test [15] and 1.78 µg/mL in test [16].

In the test with JR-FL gp120 ΔV3 (HIV-1), 5114_A19 (PGT-128) (antibody) showed an EC50 of 7.8 µg/mL.

In the case of 5123_A06 (PGT-125) (antibody), the IC50 (µg/mL), pseudovirus neutralization in test [7] came out at 0.006 µg/mL; in [9] it was 0.009 µg/mL.

5141_B17 (PGT-126) (antibody): the IC50, pseudovirus neutralization amounted to 0.501 µg/mL in test [6]; 1.14 µg/mL in [8]; 0.012 µg/mL in [10]; 0.014 µg/mL in test [11]; 0.0249 µg/mL in [12]. The IC80 (pseudovirus neutralization) is 4.43 µg/mL in test [6]; greater than 10 µg/mL in [8]; 0.0411 µg/mL in [10]; 0.0454 µg/mL in test [11]; 0.0681 µg/mL in test [12]. In addition, the IC90 (pseudovirus neutralization) in test [6] is greater than 10 µg/mL; in test [8], greater than 10 µg/mL; in test [10] it was 0.084 µg/mL; in [11], 0.09 µg/mL; in test [12] it was 0.123 µg/mL. The IC95 (pseudovirus neutralization) in test [6] was greater than 10 µg/mL; in test [8], greater than 10 µg/mL; in test [10], 0.162 µg/mL; in [11], 0.169 µg/mL; in test [12] it was 0.213 µg/mL. The IC50 (µg/mL), pseudovirus neutralization in test [7] was determined as 0.005 µg/mL; in test [9], 0.014 µg/mL.

With 5145_B14 (PGT-127) (antibody), the values for the IC50 (µg/mL), pseudovirus neutralization in test [7] and in [9] were 0.019 µg/mL and 0.029 µg/mL, respectively.

In the test with JR-FL gp120 ΔV3 (HIV-1), 5329_C19 (PGT-136) (antibody) showed an EC50 of 0.1 µg/mL.

Substance 5343_B08 (PGT-135) (antibody) registered an EC50 with JR-FL gp120 ΔV3 (HIV-1) of 0.2 µg/mL.

In the test with JR-FL gp120 ΔV3 (HIV-1), 5345_I01 (PGT-137) (antibody) returned an EC50 of 0.1 µg/mL.

With VRC01 (antibody), the IC50 (µg/mL), pseudovirus neutralization in [13] was 1.75 µg/mL; in test [14], 0.29 µg/mL; in test [15], 0.187 µg/mL.
